Results as given in the supplement of paper PMC12764529.
± gives the half width of the 95% confidence interval.

Experiments:
[1] = folding stability dG unfold from trypsin proteolysis; higher = more stable
Procedure, shortened: (§1)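 Only designs with AlphaFold2 dimer inter-PAE above 15 were retained; each was a mini-protein under 80 residues with no cysteine, in a PA-tagged cDNA display construct. After digestion with trypsin and chymotrypsin and sequencing, K50 was inferred by Bayesian fitting of counts, and unfolding free energy was derived per protease or combined against a sequence-predicted unfolded-state K50 and a shared folded-state K50.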

[2] = folding stability dG unfold from chymotrypsin proteolysis; higher = more stable
Procedure, shortened: as §1

[3] = folding stability dG unfold (combined trypsin and chymotrypsin); higher = more stable
Procedure, shortened: as §1

Sequence	folding stability dG unfold [1]	folding stability dG unfold [2]	folding stability dG unfold [3]
SAGGSAGGSAMIVVPVDLVRERLDELVFRGEDGVEYRAEVRVFEVGDRPVAVIDLRPLDEDGSAGGSAGGSA [r18_447_TrMRF]	0.467 ± 0.025 kcal/mol	0.994 ± 0.047 kcal/mol	0.823 ± 0.048 kcal/mol
SAGGSMTIVVETPEEVEKAIKALEDELKKKGIKKGDKIKKIKVEKNENGKLTVTIEVDGKKIKIEVSAGGSA [r2_120_TrROS_Hall]	0.37 ± 0.15 kcal/mol	2.02 ± 0.25 kcal/mol	1.63 ± 0.3 kcal/mol
SAGGSAGGSAEPPRYLVIELEVERSPEEIAEELRRRLGIERVEVEYDPETERLRVRVVVRLPSAGGSAGGSA [r18_275_TrROS_Hall]	1.96 ± 0.048 kcal/mol	3.37 ± 0.047 kcal/mol	2.88 ± 0.11 kcal/mol
SAGGSAGGSAMKPGEVIEIEITDKETGKKIKAEIVLKDGKLYIKIYNENGELIAEIEIEIKDSAGGSAGGSA [r18_264_TrROS_Hall]	2.83 ± 0.2 kcal/mol	3.4 ± 0.12 kcal/mol	3.42 ± 0.14 kcal/mol
SMEITLLSTDPTPGGMTTALWETPNRKVTIFKPPSENYYIVTVEIPGTGKTKTLRFPKNVSPEEIVKKLGSA [r9_522_JUSTAS]	1.88 ± 0.034 kcal/mol	1.55 ± 0.091 kcal/mol	1.78 ± 0.074 kcal/mol
SAGGSAGGSSLKPGQELELTLTLRVEVEVEVYENGKPVERYRVEREVRLTLRLKLPAASLEDLSAGGSAGGS [r20_14_TrROS_Hall]	4.06 ± 0.14 kcal/mol	5.73 ± 0.21 kcal/mol	5.55 ± 0.15 kcal/mol
SAGGSKTIEVEIKVPPGMTPEEVAKKLAEELKKAGIEVKVVKVEYDEEKGTVRITLDDGSEVELKVSAGGSA [r2_242_TrROS_Hall]	1.35 ± 0.093 kcal/mol	1.98 ± 0.1 kcal/mol	1.58 ± 0.39 kcal/mol
SAGGSAGGSAGGSKPKKIKVETVTLEDGLTLQVVVNEDTKEKVIVLVPPSEEVTVLVEPSAGGSAGGSAGGS [r4_99_TrROS_Hall]	-0.249 ± 0.31 kcal/mol	1.11 ± 0.076 kcal/mol	0.648 ± 0.15 kcal/mol
SAGLKVKIVKAEVKNGYLTLEVEVTGKDGSKKPFKIKIKLKPVPKPKPVFKFTKLPNGEIKVEVFDPSSAGG [r19_172_TrMRF]	2.76 ± 0.062 kcal/mol	3.212 ± 0.03 kcal/mol	3.04 ± 0.08 kcal/mol
SAGMIDVVVRVRLDVRPETVAEELRRRFPAIRRIEPVRVERRVEREPGRRYLLVHLRIELGDVPPELLRSAG [r5_326_TrMRF]	1.78 ± 0.032 kcal/mol	3.714 ± 0.021 kcal/mol	3.33 ± 0.063 kcal/mol
SAMKKTETRVLEIRIGDYLAKIFLTEYEDGRVETLIEVYGPDPAVVEEVKDFLEKLDPDLEITEIVVLDSAG [r14_611_TrMRF]	3.13 ± 0.072 kcal/mol	2.23 ± 0.032 kcal/mol	2.68 ± 0.12 kcal/mol
SAGGSAGGSAGGSVYIDPDKGYLVMWNEEDGYIVKYPIDPPNKIPSVDIEPIPPGDPLFSAGGSAGGSAGGS [r4_409_TrROS]	1.51 ± 0.074 kcal/mol	1.13 ± 0.07 kcal/mol	1.26 ± 0.11 kcal/mol
SAELPPGMRLVIDDIEPMRNNGKPMLMIKLSIYDPAKPGKEITHWTIMVTNDNIMAIQPTTYRIPPDDISAG [r14_651_TrROS]	2.64 ± 0.075 kcal/mol	2.63 ± 0.12 kcal/mol	2.57 ± 0.22 kcal/mol
SAGGSAGGSAGGETVVLVTYDKETKTLTVQTFELENGELKTTTKTVTLTDEQLESLPPASAGGSAGGSAGGS [r10_291_TrROS_Hall]	1.39 ± 0.07 kcal/mol	1.99 ± 0.083 kcal/mol	1.87 ± 0.18 kcal/mol
SAGGSAMKAKEIKRLKLKDRPLVVIFLENPEGGYSVLVIPLENPEKVEELLEELVKEGLLDEITPESAGGSA [r15_575_TrMRF]	1.03 ± 0.031 kcal/mol	1.93 ± 0.082 kcal/mol	1.59 ± 0.074 kcal/mol
SAGGSAGGSPMPVIEEVPLNPVEEKPDPSSNTLTVKYPDGTYRILTKNPDGSYSFKVLPSSSISAGGSAGGS [r12_351_JUSTAS]	1.67 ± 0.034 kcal/mol	1.56 ± 0.098 kcal/mol	1.71 ± 0.089 kcal/mol
SAGKMKIISVKIENNTITIEIYKDGKKIKKIEIKKNKKKIIIKIEIEPGEEIKIKIEINGKTYEITIKPSAG [r5_533_TrROS_Hall]	2.89 ± 0.26 kcal/mol	4.64 ± 0.23 kcal/mol	4.11 ± 0.46 kcal/mol
KRVTIMFNFPPGKPLPLSELAGFARNSGGEVKIQIYNPDDGKWQEITFPGGKIDDVEMFPDGWMVMITVKGS [r1_238_TrROS]	2.09 ± 0.061 kcal/mol	2.83 ± 0.089 kcal/mol	2.52 ± 0.15 kcal/mol
SAGGKKKVIEIKIEIKVPKEELKNMTKEEIAELLKKELEKKGIKIKKIEIVEIEIDGDTVTITIRIELSAGG [r13_432_TrROS_Hall]	2.18 ± 0.15 kcal/mol	2.92 ± 0.2 kcal/mol	2.72 ± 0.3 kcal/mol
GLEVKVDITVDPVGGGTRIPVTVSVPGRPIAQATADVDPETGVVNLDLGAESEEERKAALEKLKEAGIKLGS [r1_455_JUSTAS]	1.1 ± 0.049 kcal/mol	1.42 ± 0.054 kcal/mol	1.35 ± 0.083 kcal/mol
SAGGSSITVPYPEGYEITVEVFPNYATITTKTPSSTLTKTVSFSTPVTVKTPSDKPVTINVPSPEVSAGGSA [r2_57_JUSTAS]	0.303 ± 0.034 kcal/mol	0.533 ± 0.12 kcal/mol	0.436 ± 0.18 kcal/mol
